The values below are quoted from earlier work in PMC11945212.

Broadly, the Kd is the concentration at which binding is half-saturated.

The data set addresses Adducin (Homo sapiens) (UniProt P35611).
Chain of UniProt P35611 (P35611 whole entry, chain 1 of 2): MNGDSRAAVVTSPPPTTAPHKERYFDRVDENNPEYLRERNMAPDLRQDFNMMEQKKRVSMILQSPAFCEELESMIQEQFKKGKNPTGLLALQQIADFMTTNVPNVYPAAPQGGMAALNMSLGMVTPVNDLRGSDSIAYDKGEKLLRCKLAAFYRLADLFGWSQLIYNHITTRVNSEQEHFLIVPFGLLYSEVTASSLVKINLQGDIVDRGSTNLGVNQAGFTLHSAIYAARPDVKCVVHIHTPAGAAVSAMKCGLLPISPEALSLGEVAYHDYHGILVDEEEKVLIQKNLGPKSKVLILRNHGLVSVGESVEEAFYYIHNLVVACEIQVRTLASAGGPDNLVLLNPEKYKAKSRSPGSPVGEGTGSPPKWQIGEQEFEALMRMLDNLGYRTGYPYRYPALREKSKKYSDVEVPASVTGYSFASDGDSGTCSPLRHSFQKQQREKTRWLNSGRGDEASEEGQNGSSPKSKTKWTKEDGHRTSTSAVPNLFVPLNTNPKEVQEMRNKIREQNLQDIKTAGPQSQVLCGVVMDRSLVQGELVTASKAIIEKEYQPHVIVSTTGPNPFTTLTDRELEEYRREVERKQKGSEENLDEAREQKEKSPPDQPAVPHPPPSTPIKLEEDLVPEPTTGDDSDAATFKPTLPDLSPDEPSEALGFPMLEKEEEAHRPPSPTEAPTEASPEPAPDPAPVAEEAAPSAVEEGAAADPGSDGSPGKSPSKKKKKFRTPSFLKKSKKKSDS
Chain of UniProt P35611 (P35612 whole entry, chain 2 of 2, further chain): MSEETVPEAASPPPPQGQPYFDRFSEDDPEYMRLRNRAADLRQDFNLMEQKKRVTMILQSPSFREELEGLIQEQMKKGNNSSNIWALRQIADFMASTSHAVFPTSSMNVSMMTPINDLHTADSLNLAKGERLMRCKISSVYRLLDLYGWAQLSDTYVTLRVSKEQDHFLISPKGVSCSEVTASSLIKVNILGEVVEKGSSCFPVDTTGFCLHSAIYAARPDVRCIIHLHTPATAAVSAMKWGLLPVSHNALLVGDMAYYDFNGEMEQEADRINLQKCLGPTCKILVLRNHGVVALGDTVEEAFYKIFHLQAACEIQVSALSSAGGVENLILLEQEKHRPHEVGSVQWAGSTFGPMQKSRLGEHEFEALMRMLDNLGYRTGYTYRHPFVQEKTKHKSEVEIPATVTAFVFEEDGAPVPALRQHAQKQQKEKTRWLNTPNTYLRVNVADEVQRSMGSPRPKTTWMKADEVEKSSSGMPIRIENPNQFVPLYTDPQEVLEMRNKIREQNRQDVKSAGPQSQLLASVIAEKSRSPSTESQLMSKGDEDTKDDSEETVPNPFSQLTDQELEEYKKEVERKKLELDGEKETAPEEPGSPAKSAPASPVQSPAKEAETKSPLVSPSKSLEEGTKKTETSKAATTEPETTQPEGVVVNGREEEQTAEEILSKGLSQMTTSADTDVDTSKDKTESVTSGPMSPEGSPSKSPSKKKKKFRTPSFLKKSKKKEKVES

On to Band 3 (from UniProt P02730), for which the Kd was 100 nM.
